The values below come from the RNAGym collection of RNA variant scans (doi:10.1093/molbev/msab373).

B1: Azoarcus group I ribozyme (parent)
chain: GUGCCUUGCGCCGGGAAACCACGCAAGGGAUGGUGUCAAAUUCGGCGAAACCUAAGCGCCCGCCCGGGCGUAUGGCAACGCCGAGCCAAGCUUCGGCGCCUGCGCCGAUGAAGGUGUAGAGACUAGACGGCACCCACCUAAGGCAAACGCUAUGGUGAAGGCAUAGUCCAGGGAGUGGCGAAAGUCACACAAACCGG

The variants in this data set derive from B1. The data set can be described thus: reverse-splicing fitness (ratio to wild type); higher = more active; in vitro selection; Mg2+ level not given. Summed up: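 An in vitro group I ribozyme library with randomized positions was T7-transcribed and gel-purified. In triplicate, 10 pmol RNA in EPPS pH 7.5 was reacted with 50 pmoles of a 30-nt RNA substrate for 1 h at 37 °C across several added MgCl2 levels (1–48 mM), then stopped with EDTA. Products were reverse transcribed from a substrate-complementary primer, PCR-amplified and sequenced (HiSeq 4000). Fitness is a variant's read proportion after selection over that before, normalised to wild type.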
GUGCCUUGCGCCGGGAAACCACGCAAGGGAUGGUGUCAAAUUCGGCGAAACCUAAGCGCCCGCCCGGGCGUAUGGCAACGCGGAGCCAAGCUUCGGCGCCUGCGCCGAUGAAGGUGUAGUGACUAGACGGCACCCACCUAAGGCAAACGGUAUGGUGAAGGCAUAGUCUAGGGAGCGGCGAAAGUCACACAAACCGG [C82G A120U C150G C169U U176C]: the reverse-splicing fitness came to 0.00347.

In the case of GUGCCUUGCGCCGGGAAACCACGCAAGGGAUGGUGUCAAAUUCGGCGAAACCUAAGCGCCCGCCCGGGCGUAUGGCAACGCGGAGCCAAGCUUCGGCGCCUGCGCCGAUGAAGGUGUAGUGACUAGACGGCACCCACCUAAGGCAAACGGUAUGGUGAAGGCAUAGUCUAGGGAGAGGCGAAAGUCACACAAACCGG [C82G A120U C150G C169U U176A], the reverse-splicing fitness came to 0.00369.

For GUGCCUUGCGCCGGGAAACCACGCAAGGGAUGGUGUCAAAUUCGGCGAAACCUAAGCGCCCGCCCGGGCGUAUGGCAACGCGGAGCCAAGCUUCGGCGCCUGCGCCGAUGAAGGUGUAGUGACUAGACGGCACCCACCUAAGGCAAACGGUAUGGUGAAGGCAUAGUCUAGGGAGGGGCGAAAGUCACACAAACCGG [C82G A120U C150G C169U U176G], the reverse-splicing fitness amounted to 0.0022.

For GUGCCUUGCGCCGGGAAACCACGCAAGGGAUGGUGUCAAAUUCGGCGAAACCUAAGCGCCCGCCCGGGCGUAUGGCAACGCGGAGCCAAGCUUCGGCGCCUGCGCCGAUGAAGGUGUAGUGACUAGACGGCACCCACCUAAGGCAAACGCUAUGGUGAAGGCAUAGUCAAGGGAGGGGCGAAAGUCACACAAACCGG [C82G A120U C169A U176G], the reverse-splicing fitness stood at 0.000985.

GUGCCUUGCGCCGGGAAACCACGCAAGGGAUGGUGUCAAAUUCGGCGAAACCUAAGCGCCCGCCCGGGCGUAUGGCAACGCGGAGCCAAGCUUCGGCGCCUGCGCCGAUGAAGGUGUAGUGACUAGACGGCACCCACCUAAGGCAAACGCUAUGGUGAAGGCAUAGUCAAGGGAGCGGCGAAAGUCACACAAACCGG [C82G A120U C169A U176C]: the reverse-splicing fitness stood at 0.00259.

For GUGCCUUGCGCCGGGAAACCACGCAAGGGAUGGUGUCAAAUUCGGCGAAACCUAAGCGCCCGCCCGGGCGUAUGGCAACGCGGAGCCAAGCUUCGGCGCCUGCGCCGAUGAAGGUGUAGUGACUAGACGGCACCCACCUAAGGCAAACGCUAUGGUGAAGGCAUAGUCAAGGGAGAGGCGAAAGUCACACAAACCGG [C82G A120U C169A U176A], the reverse-splicing fitness came out at 0.00247.

As for GUGCCUUGCGCCGGGAAACCACGCAAGGGAUGGUGUCAAAUUCGGCGAAACCUAAGCGCCCGCCCGGGCGUAUGGCAACGCGGAGCCAAGCUUCGGCGCCUGCGCCGAUGAAGGUGUAGUGACUAGACGGCACCCACCUAAGGCAAACGCUAUGGUGAAGGCAUAGUCGAGGGAGCGGCGAAAGUCACACAAACCGG [C82G A120U C169G U176C], the reverse-splicing fitness stood at 0.00322.

As for GUGCCUUGCGCCGGGAAACCACGCAAGGGAUGGUGUCAAAUUCGGCGAAACCUAAGCGCCCGCCCGGGCGUAUGGCAACGCGGAGCCAAGCUUCGGCGCCUGCGCCGAUGAAGGUGUAGUGACUAGACGGCACCCACCUAAGGCAAACGCUAUGGUGAAGGCAUAGUCGAGGGAGAGGCGAAAGUCACACAAACCGG [C82G A120U C169G U176A], the reverse-splicing fitness worked out at 0.00367.

For GUGCCUUGCGCCGGGAAACCACGCAAGGGAUGGUGUCAAAUUCGGCGAAACCUAAGCGCCCGCCCGGGCGUAUGGCAACGCGGAGCCAAGCUUCGGCGCCUGCGCCGAUGAAGGUGUAGUGACUAGACGGCACCCACCUAAGGCAAACGCUAUGGUGAAGGCAUAGUCGAGGGAGUGGCGAAAGUCACACAAACCGG [C82G A120U C169G], the reverse-splicing fitness amounted to 0.00666.

As for GUGCCUUGCGCCGGGAAACCACGCAAGGGAUGGUGUCAAAUUCGGCGAAACCUAAGCGCCCGCCCGGGCGUAUGGCAACGCGGAGCCAAGCUUCGGCGCCUGCGCCGAUGAAGGUGUAGUGACUAGACGGCACCCACCUAAGGCAAACGCUAUGGUGAAGGCAUAGUCAAGGGAGUGGCGAAAGUCACACAAACCGG [C82G A120U C169A], the reverse-splicing fitness stood at 0.00257.

Turning to GUGCCUUGCGCCGGGAAACCACGCAAGGGAUGGUGUCAAAUUCGGCGAAACCUAAGCGCCCGCCCGGGCGUAUGGCAACGCGGAGCCAAGCUUCGGCGCCUGCGCCGAUGAAGGUGUAGUGACUAGACGGCACCCACCUAAGGCAAACGGUAUGGUGAAGGCAUAGUCCAGGGAGAGGCGAAAGUCACACAAACCGG [C82G A120U C150G U176A], the reverse-splicing fitness is 0.0062.

Consider GUGCCUUGCGCCGGGAAACCACGCAAGGGAUGGUGUCAAAUUCGGCGAAACCUAAGCGCCCGCCCGGGCGUAUGGCAACGCGGAGCCAAGCUUCGGCGCCUGCGCCGAUGAAGGUGUAGUGACUAGACGGCACCCACCUAAGGCAAACGGUAUGGUGAAGGCAUAGUCCAGGGAGCGGCGAAAGUCACACAAACCGG [C82G A120U C150G U176C], for which the reverse-splicing fitness was determined as 0.0103.

For GUGCCUUGCGCCGGGAAACCACGCAAGGGAUGGUGUCAAAUUCGGCGAAACCUAAGCGCCCGCCCGGGCGUAUGGCAACGCGGAGCCAAGCUUCGGCGCCUGCGCCGAUGAAGGUGUAGUGACUAGACGGCACCCACCUAAGGCAAACGGUAUGGUGAAGGCAUAGUCCAGGGAGGGGCGAAAGUCACACAAACCGG [C82G A120U C150G U176G], the reverse-splicing fitness was 0.00297.

For the variant GUGCCUUGCGCCGGGAAACCACGCAAGGGAUGGUGUCAAAUUCGGCGAAACCUAAGCGCCCGCCCGGGCGUAUGGCAACGCGGAGCCAAGCUUCGGCGCCUGCGCCGAUGAAGGUGUAGUGACUAGACGGCACCCACCUAAGGCAAACGUUAUGGUGAAGGCAUAGUCCAGGGAGAGGCGAAAGUCACACAAACCGG [C82G A120U C150U U176A], the reverse-splicing fitness was 0.0366.

GUGCCUUGCGCCGGGAAACCACGCAAGGGAUGGUGUCAAAUUCGGCGAAACCUAAGCGCCCGCCCGGGCGUAUGGCAACGCGGAGCCAAGCUUCGGCGCCUGCGCCGAUGAAGGUGUAGUGACUAGACGGCACCCACCUAAGGCAAACGUUAUGGUGAAGGCAUAGUCCAGGGAGCGGCGAAAGUCACACAAACCGG [C82G A120U C150U U176C]: the reverse-splicing fitness amounted to 0.058.
